Reference: PMC5557881

How the values were obtained:
[1] = molecular target: Sigma mSPE-7 IgE (commercial mouse monoclonal anti-dinitrophenyl IgE, SPE-7, from Sigma) (mouse); conditions: scale: % of the activity of the unpurified Sigma SPE-7 IgE
[2] = molecular target: mSPE-7 IgE from the NS1 hybridoma (mouse anti-dinitrophenyl IgE) (mouse); conditions: scale: % of the unpurified Sigma SPE-7 IgE's activity
[3] = molecular target: mSPE-7 IgE from the NS1 hybridoma (mouse anti-dinitrophenyl IgE) (mouse); assay: SEC-MALLS; peak B of the Superdex 200 Increase fractionation of NS1 mSPE-7 IgE, run again on Superdex 200 Increase with inline light scattering and refractometer

degranulation of RBL-SX38 cells (β-hexosaminidase release) without antigen by component B of Sigma SPE-7 IgE, against unpurified Sigma SPE-7 IgE [1]	degranulation of RBL-SX38 cells (β-hexosaminidase release) without antigen by peak B (IgE trimer) of NS1 mSPE-7 IgE, against unpurified Sigma SPE-7 IgE [2]	stoichiometry N [3]	Substance
65			Sigma mSPE-7 IgE (commercial mouse monoclonal anti-dinitrophenyl IgE, SPE-7, from Sigma) (antibody)
	55	3	mSPE-7 IgE from the NS1 hybridoma (mouse anti-dinitrophenyl IgE) (antibody)
